T1: ANAC046 intrinsically disordered region, ANAC046(172-338) (Arabidopsis thaliana, UniProt Q9SQQ6 172-338)
T1 sequence (looked up): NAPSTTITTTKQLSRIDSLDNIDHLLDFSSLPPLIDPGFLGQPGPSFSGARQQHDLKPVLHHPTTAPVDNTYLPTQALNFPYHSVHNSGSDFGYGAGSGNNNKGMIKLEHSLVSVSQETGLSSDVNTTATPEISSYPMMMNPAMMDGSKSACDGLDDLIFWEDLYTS

B1: KIX domain of HAC1, HAC1-KIX(43-134) (domain or fragment, Arabidopsis, UniProt Q9C5X9 43-134, looked up)
chain: GPSRVSPVDNDILKLRQAMRIRIFNILQQKQPSPADEASKAKYMDVARRLEEGLFKIANTKEDYVNPSTLEPRLASLIKGRQLNNYNQRHAN
B2: ANAC046(300-338), fragment containing AD2/M5 with its context (domain or fragment, Arabidopsis thaliana, UniProt Q9SQQ6 300-338, looked up)
chain: ATPEISSYPMMMNPAMMDGSKSACDGLDDLIFWEDLYTS
B3: ACID domain of MEDIATOR subunit 25 (MED25), MED25-ACID(532-680) (domain or fragment, Arabidopsis, UniProt Q7XYY2 532-680, looked up)
chain: SNSSAPNMQLSQPSSGAMQTSQSKYVKVWEGNLSGQRQGQPVLITRLEGYRSASASDSLAANWPPTMQIVRLISQDHMNNKQYVGKADFLVFRAMSQHGFLGQLQDKKLCAVIQLPSQTLLLSVSDKACRLIGMLFPGDMVVFKPQIPN
B4: TAZ2 domain of HAC1, HAC1-TAZ2(1574-1697) (domain or fragment, Arabidopsis, UniProt Q9C5X9 1574-1697, looked up)
chain: NAQNKEARQLRVLQLRKMLDLLVHASQCRSAHCQYPNCRKVKGLFRHGINCKVRASGGCVLCKKMWYLLQLHARACKESECHVPRCRDLKEHLRRLQQQSDSRRRAAVMEMMRQRAAEVAGGSG
B5: RST domain of Radical-Induced Cell Death1 (RCD1), RCD1-RST(499-572) (domain or fragment, Arabidopsis, UniProt Q8RY59 499-572, looked up)
chain: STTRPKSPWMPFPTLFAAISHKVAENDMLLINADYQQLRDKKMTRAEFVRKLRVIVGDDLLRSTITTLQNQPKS
B6: TAZ1 domain of HAC1, HAC1-TAZ1(626-724) (domain or fragment, Arabidopsis, UniProt Q9C5X9 626-724, looked up)
chain: GNGNRDPRFKNQQKWLLFLRHARHCKAPEGKCPDRNCVTVQKLWKHMDSCAAPQCSYPRCLPTKTLINHHRSCKEPNCPVCIPVKAYLQQQANARSLAR
B7: ANAC046(172-222, S175W), fragment containing AD1/M1-2 (domain or fragment, Arabidopsis thaliana, UniProt Q9SQQ6 172-222, looked up)
chain: NAPWTTITTTKQLSRIDSLDNIDHLLDFSSLPPLIDPGFLGQPGPSFSGAR

Columns and labels:
[1] = biological target: T1, ANAC046 intrinsically disordered …; assay: NMR titration
[2] = biological target: B6; assay: ITC
[3] = biological target: B5; assay: ITC
[4] = biological target: T1, ANAC046 intrinsically disordered …; assay: ITC
[5] = biological target: B2; assay: ITC
[6] = biological target: T1, ANAC046 intrinsically disordered …; assay: ITC; remark: listed apart in the source
[7] = biological target: B6; assay: NMR titration
[8] = biological target: B5; assay: NMR titration

B1: binds [1].

B2 showed a Kd [2] of 6 µM, a Kd [3] of 0.12 µM and a dH [3] of -31 kJ/mol. For the same binder, the “stoichiometry N” value [3] was 0.8.

B3: binds [1].

B4: binds [1].

B5 gave a Kd [4] of 0.2 µM and a dH [4] of -23 kJ/mol.

With B6 the dH [5] was -25 kJ/mol, the “stoichiometry N” value [5] was 0.97 and the “dH, site AD1/M1-2 (two-site fit)” value [6] was -65 kJ/mol. The “dH, site AD2/M5 (two-site fit)” value [6] was -25 kJ/mol.

B7 gave a Kd [7] of 112 µM and a Kd [8] of 148 µM.

— article PMC12079402 (Protein Science : A Publication of the Protein Society, 2025)
